± gives the uncertainty stated by the source.
System: HEK293T
Experiment: plasma membrane surface immunostaining intensity (anti-HA, deep receptor scanning) (arbitrary fluorescence units); higher = higher plasma membrane expression

| Sequence | plasma membrane surface immunostaining intensity (GPCR class: A (Olfactory)) | plasma membrane surface immunostaining intensity (GPCR class: Taste) | further results |
| --- | --- | --- | --- |
| MLGLNHTSMSEFILVGFSAFPHLQLMLFLLFLLMYLFTLLGNLLIMATVWSERSLHTPMYLFLCVLSVSEILYTVAIIPRMLADLLSTQRSIAFLACASQMFFSFSFGFTHSFLLTVMGYDRYVAICHPLRYNVLMSPRGCACLVGCSWAGGSVMGMVVTSAIFQLTFCGSHEIQHFLCHVPPLLKLACGNNVPAVALGVGLVCIMALLGCFLLILLSYAFIVADILKIPSAEGRNKAFSTCASHLIVVIVHYGFASVIYLKPKGPHSQEGDTLMATTYAVLTPFLSPIIFSLRNKELKVAMKRTFLSTLYSSGT [OR10H2] | 112 ± 22 | – | – |
| MLGPAVLGLSLWALLHPGTGAPLCLSQQLRMKGDYVLGGLFPLGEAEEAGLRSRTRPSSPVCTRFSSNGLLWALAMKMAVEEINNKSDLLPGLRLGYDLFDTCSEPVVAMKPSLMFLAKAGSRDIAAYCNYTQYQPRVLAVIGPHSSELAMVTGKFFSFFLMPQVSYGASMELLSARETFPSFFRTVPSDRVQLTAAAELLQEFGWNWVAALGSDDEYGRQGLSIFSALAAARGICIAHEGLVPLPRADDSRLGKVQDVLHQVNQSSVQVVLLFASVHAAHALFNYSISSRLSPKVWVASEAWLTSDLVMGLPGMAQMGTVLGFLQRGAQLHEFPQYVKTHLALATDPAFCSALGEREQGLEEDVVGQRCPQCDCITLQNVSAGLNHHQTFSVYAAVYSVAQALHNTLQCNASGCPAQDPVKPWQLLENMYNLTFHVGGLPLRFDSSGNVDMEYDLKLWVWQGSVPRLHDVGRFNGSLRTERLKIRWHTSDNQKPVSRCSRQCQEGQVRRVKGFHSCCYDCVDCEAGSYRQNPDDIACTFCGQDEWSPERSTRCFRRRSRFLAWGEPAVLLLLLLLSLALGLVLAALGLFVHHRDSPLVQASGGPLACFGLVCLGLVCLSVLLFPGQPSPARCLAQQPLSHLPLTGCLSTLFLQAAEIFVESELPLSWADRLSGCLRGPWAWLVVLLAMLVEVALCTWYLVAFPPEVVTDWHMLPTEALVHCRTRSWVSFGLAHATNATLAFLCFLGTFLVRSQPGCYNRARGLTFAMLAYFITWVSFVPLLANVQVVLRPAVQMGALLLCVLGILAAFHLPRCYLLMRQPGLNTPEFFLGGGPGDAQGQNDGNTGNQGKHE [TAS1R3] | – | 122 ± 9.1 | – |
| MLGPAYNHTMETPASFLLVGIPGLQSSHLWLAISLSAMYITALLGNTLIVTAIWMDSTRHEPMYCFLCVLAAVDIVMASSVVPKMVSIFCSGDSSISFSACFTQMFFVHLATAVETGLLLTMAFDRYVAICKPLHYKRILTPQVMLGMSMAVTIRAVTFMTPLSWMMNHLPFCGSNVVVHSYCKHIALARLACADPVPSSLYSLIGSSLMVGSDVAFIAASYILILRAVFDLSSKTAQLKALSTCGSHVGVMALYYLPGMASIYAAWLGQDIVPLHTQVLLADLYVIIPATLNPIIYGMRTKQLLEGIWSYLMHFLFDHSNLGS [OR52I1] | 157 ± 16 | – | – |
| MLLCTARLVGLQLLISCCWAFACHSTESSPDFTLPGDYLLAGLFPLHSGCLQVRHRPEVTLCDRSCSFNEHGYHLFQAMRLGVEEINNSTALLPNITLGYQLYDVCSDSANVYATLRVLSLPGQHHIELQGDLLHYSPTVLAVIGPDSTNRAATTAALLSPFLVPMISYAASSETLSVKRQYPSFLRTIPNDKYQVETMVLLLQKFGWTWISLVGSSDDYGQLGVQALENQATGQGICIAFKDIMPFSAQVGDERMQCLMRHLAQAGATVVVVFSSRQLARVFFESVVLTNLTGKVWVASEAWALSRHITGVPGIQRIGMVLGVAIQKRAVPGLKAFEEAYARADKKAPRPCHKGSWCSSNQLCRECQAFMAHTMPKLKAFSMSSAYNAYRAVYAVAHGLHQLLGCASGACSRGRVYPWQLLEQIHKVHFLLHKDTVAFNDNRDPLSSYNIIAWDWNGPKWTFTVLGSSTWSPVQLNINETKIQWHGKDNQVPKSVCSSDCLEGHQRVVTGFHHCCFECVPCGAGTFLNKSDLYRCQPCGKEEWAPEGSQTCFPRTVVFLALREHTSWVLLAANTLLLLLLLGTAGLFAWHLDTPVVRSAGGRLCFLMLGSLAAGSGSLYGFFGEPTRPACLLRQALFALGFTIFLSCLTVRSFQLIIIFKFSTKVPTFYHAWVQNHGAGLFVMISSAAQLLICLTWLVVWTPLPAREYQRFPHLVMLECTETNSLGFILAFLYNGLLSISAFACSYLGKDLPENYNEAKCVTFSLLFNFVSWIAFFTTASVYDGKYLPAANMMAGLSSLSSGFGGYFLPKCYVILCRPDLNSTEHFQASIQDYTRRCGST [TAS1R1] | – | 124 ± 5.5 | – |
| MLLETQDALYVALELVIAALSVAGNVLVCAAVGTANTLQTPTNYFLVSLAAADVAVGLFAIPFAITISLGFCTDFYGCLFLACFVLVLTQSSIFSLLAVAVDRYLAICVPLRYKSLVTGTRARGVIAVLWVLAFGIGLTPFLGWNSKDSATNNCTEPWDGTTNESCCLVKCLFENVVPMSYMVYFNFFGCVLPPLLIMLVIYIKIFLVACRQLQRTELMDHSRTTLQREIHAAKSLAMIVGIFALCWLPVHAVNCVTLFQPAQGKNKPKWAMNMAILLSHANSVVNPIVYAYRNRDFRYTFHKIISRYLLCQADVKSGNGQAGVQPALGVGL [ADORA2B] | – | – | plasma membrane surface immunostaining intensity (GPCR class: A): 1240 ± 140 |
| MLMKKNASFEDFFLLLGFSNWPHLEVVLFVVILIFYLITLIGNLFIIILSYLDSHLHTPMYFFLSNLSFLDLCYTTSSIPQLLVNLWGPEKTISYAGCTVQLYFVLALGTAECVLLVVMSYDRYAAVCRPLHYTVLMHPRFCRLLAAASWVSGFTTSALHSSFTFWIPLCRHRLVDHFFCEVPALLRLSCVDTQANELTLMVMSSIFVLIPLILILTSYGAIARAVLSMQSTTGLQKVLRTCGAHLMVVSLFFIPVMCMYLQPPSENSQDQGKFIALFYTVVTPSLNPLIYTFRNKDVRGAVKRLMGWEWGM [OR2J1] | 133 ± 36 | – | – |
| MLMNYSSATEFYLLGFPGSEELHHILFAIFFFFYLVTLMGNTVIIMIVCVDKRLQSPMYFFLGHLSALEILVTTIIVPVMLWGLLLPGMQTIYLSACVVQLFLYLAVGTTEFALLGAMAVDRYVAVCNPLRYNIIMNRHTCNFVVLVSWVFGFLFQIWPVYVMFQLTYCKSNVVNNFFCDRGQLLKLSCNNTLFTEFILFLMAVFVLFGSLIPTIVSNAYIISTILKIPSSSGRRKSFSTCASHFTCVVIGYGSCLFLYVKPKQTQAADYNWVVSLMVSVVTPFLNPFIFTLRNDKVIEALRDGVKRCCQLFRN [OR9A4] | 185 ± 75 | – | – |
| MLNFTDVTEFILLGLTSRREWQVLFFIIFLVVYIITMVGNIGMMVLIKVSPQLNNPMYFFLSHLSFVDVWFSSNVTPKMLENLLSDKKTITYAGCLVQCFFFIALVHVEIFILAAMAFDRYMAIGNPLLYGSKMSRVVCIRLITFPYIYGFLTSLAATLWTYGLYFCGKIEINHFYCADPPLIKMACAGTFVKEYTMIILAGINFTYSLTVIIISYLFILIAILRMRSAEGRQKAFSTCGSHLTAVIIFYGTLIFMYLRRPTEESVEQGKMVAVFYTTVIPMLNPMIYSLRNKDVKKAMMKVISRSC [OR5M3] | 120 ± 24 | – | – |
| MLNTTSVTEFLLLGVTDIQELQPFLFVVFLTIYFISVTGNGAVLMIVISDPRLHSLMYFFLGNLSYLDICYSTVTLPKMLQNFLSTHKAISFLGCISQLHFFHSLGSTESMLFAVMAFDLSVAICKPLRYTVIMNPQLCTQMAITIWVIGFFHALLHSVMTSRLNFCGSNRIHHFLCDIKPLLKLACGNTELNQWLLSTVTGTIAMGPFFLTLLSYFYIITYLFFKTRSCSMLCKALSTCASHFMVVILFYAPVLFTYIHPALESFMDQDRIVAIMYTVVTPVLNPLIYTLRNKEVKGALGRVIRRL [OR12D2] | 126 ± 22 | – | – |
| MLPDWKSSLILMAYIIIFLTGLPANLLALRAFVGRIRQPQPAPVHILLLSLTLADLLLLLLLPFKIIEAASNFRWYLPKVVCALTSFGFYSSIYCSTWLLAGISIERYLGVAFPVQYKLSRRPLYGVIAALVAWVMSFGHCTIVIIVQYLNTTEQVRSGNEITCYENFTDNQLDVVLPVRLELCLVLFFIPMAVTIFCYWRFVWIMLSQPLVGAQRRRRAVGLAVVTLLNFLVCFGPYNVSHLVGYHQRKSPWWRSIAVVFSSLNASLDPLLFYFSSSVVRRAFGRGLQVLRNQGSSLLGRRGKDTAEGTNEDRGVGQGEGMPSSDFTTE [FFAR2] | – | – | plasma membrane surface immunostaining intensity (GPCR class: A): 3600 ± 470 |
| MLRLFYFSAIIASVILNFVGIIMNLFITVVNCKTWVKSHRISSSDRILFSLGITRFLMLGLFLVNTIYFVSSNTERSVYLSAFFVLCFMFLDSSSVWFVTLLNILYCVKITNFQHSVFLLLKRNISPKIPRLLLACVLISAFTTCLYITLSQASPFPELVTTRNNTSFNISEGILSLVVSLVLSSSLQFIINVTSASLLIHSLRRHIQKMQKNATGFWNPQTEAHVGAMKLMVYFLILYIPYSVATLVQYLPFYAGMDMGTKSICLIFATLYSPGHSVLIIITHPKLKTTAKKILCFKK [TAS2R4] | – | 139 ± 19 | – |
| MLRNGSIVTEFILVGFQQSSTSTRALLFALFLALYSLTMAMNGLIIFITSWTDPKLNSPMYFFLGHLSLLDVCFITTTIPQMLIHLVVRDHIVSFVCCMTQMYFVFCVGVAECILLAFMAYDRYVAICYPLNYVPIISQKVCVRLVGTAWFFGLINGIFLEYISFREPFRRDNHIESFFCEAPIVIGLSCGDPQFSLWAIFADAIVVILSPMVLTVTSYVHILATILSKASSSGRGKTFSTCASHLTVVIFLYTSAMFSYMNPHSTHGPDKDKPFSLLYTIITPMCNPIIYSFRNKEIKEAMVRALGRTRLAQPQSV [OR10AD1] | 326 ± 140 | – | – |
| MLSAGLGLLMLVAVVEFLIGLIGNGSLVVWSFREWIRKFNWSSYNLIILGLAGCRFLLQWLIILDLSLFPLFQSSRWLRYLSIFWVLVSQASLWFATFLSVFYCKKITTFDRPAYLWLKQRAYNLSLWCLLGYFIINLLLTVQIGLTFYHPPQGNSSIRYPFESWQYLYAFQLNSGSYLPLVVFLVSSGMLIVSLYTHHKKMKVHSAGRRDVRAKAHITALKSLGCFLLLHLVYIMASPFSITSKTYPPDLTSVFIWETLMAAYPSLHSLILIMGIPRVKQTCQKILWKTVCARRCWGP [TAS2R5] | – | 123 ± 18 | – |
| MLSTSRSRFIRNTNESGEEVTTFFDYDYGAPCHKFDVKQIGAQLLPPLYSLVFIFGFVGNMLVVLILINCKKLKCLTDIYLLNLAISDLLFLITLPLWAHSAANEWVFGNAMCKLFTGLYHIGYFGGIFFIILLTIDRYLAIVHAVFALKARTVTFGVVTSVITWLVAVFASVPGIIFTKCQKEDSVYVCGPYFPRGWNNFHTIMRNILGLVLPLLIMVICYSGILKTLLRCRNEKKRHRAVRVIFTIMIVYFLFWTPYNIVILLNTFQEFFGLSNCESTSQLDQATQVTETLGMTHCCINPIIYAFVGEKFRSLFHIALGCRIAPLQKPVCGGPGVRPGKNVKVTTQGLLDGRGKGKSIGRAPEASLQDKEGA [CCR2] | – | – | plasma membrane surface immunostaining intensity (GPCR class: A): 137 ± 20 |
| MLTLTRIRTVSYEVRSTFLFISVLEFAVGFLTNAFVFLVNFWDVVKRQALSNSDCVLLCLSISRLFLHGLLFLSAIQLTHFQKLSEPLNHSYQAIIMLWMIANQANLWLAACLSLLYCSKLIRFSHTFLICLASWVSRKISQMLLGIILCSCICTVLCVWCFFSRPHFTVTTVLFMNNNTRLNWQIKDLNLFYSFLFCYLWSVPPFLLFLVSSGMLTVSLGRHMRTMKVYTRNSRDPSLEAHIKALKSLVSFFCFFVISSCAAFISVPLLILWRDKIGVMVCVGIMAACPSGHAAILISGNAKLRRAVMTILLWAQSSLKVRADHKADSRTLC [TAS2R38] | – | 123 ± 18 | – |
| MMCFLLIISSILVVFAFVLGNVANGFIALVNVIDWVNTRKISSAEQILTALVVSRIGLLWVMLFLWYATVFNSALYGLEVRIVASNAWAVTNHFSMWLAASLSIFCLLKIANFSNLISLHLKKRIKSVVLVILLGPLVFLICNLAVITMDERVWTKEYEGNVTWKIKLRNAIHLSSLTVTTLANLIPFTLSLICFLLLICSLCKHLKKMRLHSKGSQDPSTKVHIKALQTVTSFLMLFAIYFLCIITSTWNLRTQQSKLVLLLCQTVAIMYPSFHSFILIMGSRKLKQTFLSVLWQMTR [TAS2R19] | – | 370 ± 230 | – |

Source: the supplement of paper PMC12458215
